Experimental data as given in the supplement of paper PMC10724198.
± gives the standard deviation of the averaged measurements.

Legend:
[1] = system: Saccharomyces cerevisiae; assay: protein stability index of tFT-peptide fusion (C-terminal peptide) (PSI (0-1 scale)); higher = more stable (slower turnover)
Method: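 MPS profiling in S. cerevisiae of the tFT-X12 degron library: putative degron peptides plus stable controls, 12 aa, fused to the C-terminus of a sfGFP-mCherry timer. Cells are FACS-sorted into 8 mCherry/sfGFP bins and deep-sequenced. PSI runs from 0 (unstable) to 1 (stable). Backgrounds are wild type, das1Δ and doa10Δ at 30 °C, and wild type, das1Δ, cdc34-1 and cdc53-1 at 37 °C; 2-3 technical replicates each.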

[2] = system: Saccharomyces cerevisiae; assay: as above; details: genetic background: wild type; temperature: 30 C
[3] = genetic background: cdc34-1, temperature: 37 C
[4] = genetic background: cdc53-1, temperature: 37 C
[5] = genetic background: das1 deletion, temperature: 30 C
[6] = genetic background: das1 deletion, temperature: 37 C
[7] = genetic background: doa10 deletion, temperature: 30 C
[8] = genetic background: wild type, temperature: 30 C
[9] = genetic background: wild type, temperature: 37 C
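Also: PSI is a weighted mean of sequencing reads over stability bins, variants kept only with over 10 reads, mCherry proximal and sfGFP distal, peptide attached via GGGS linker.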

Sequence | protein stability index [1, 3] | protein stability index [1, 4] | protein stability index [1, 5] | protein stability index [1, 6] | protein stability index [1, 7] | protein stability index [1, 8] | protein stability index [1, 9] | protein stability index [2]
CKFLYMALLFFW | 0.278 ± 0.0085 | 0.364 ± 0.0087 | 0.263 ± 0.032 | 0.423 ± 0.025 | 0.313 ± 0.02 | 0.288 ± 0.025 | 0.392 ± 0.00069 | 0.299 ± 0.061
CLFLVFCFCVCS | 0.59488 ± 0.00049 | 0.62042 ± 0.00025 | 0.547 ± 0.031 | 0.596 ± 0.077 | 0.534 ± 0.018 | 0.512 ± 0.02 | 0.531 ± 0.032 | 0.498 ± 0.048
CLGFWVCCYCLV | 0.537 ± 0.037 | 0.589 ± 0.044 | 0.474 ± 0.006 | 0.592 ± 0.0093 | 0.246 ± 0.0084 | 0.281 ± 0.035 | 0.48 ± 0.017 | 0.396 ± 0.029
CLHWFMVLFRVL | 0.139 ± 0.051 | 0.12 ± 0.018 | 0.296 ± 0.043 | 0.426 ± 0.0053 | 0.212 ± 0.013 | 0.122 ± 0.037 | 0.203 ± 0.015 | 0.119 ± 0.022
CLLLVISSLCSG | 0.416 ± 0.047 | 0.462 ± 0.073 | 0.336 ± 0.014 | 0.529 ± 0.023 | 0.261 ± 0.0032 | 0.301 ± 0.0098 | 0.4964 ± 0.0038 | 0.403 ± 0.011
CLVLCLSIPSPL | 0.607 ± 0.027 | 0.6246 ± 0.00068 | 0.497 ± 0.03 | 0.6133 ± 0.0046 | 0.501 ± 0.018 | 0.5 ± 0.015 | 0.606 ± 0.012 | 0.55 ± 0.08
CLVWLVRIIVLD | 0.199 ± 0.019 | 0.268 ± 0.026 | 0.201 ± 0.031 | 0.366 ± 0.039 | 0.206 ± 0.005 | 0.195 ± 0.048 | 0.32 ± 0.025 | 0.298 ± 0.048
CPFFFFSLIFLF | 0.16 ± 0.058 | 0.214 ± 0.044 | 0.228 ± 0.041 | 0.329 ± 0.011 | 0.349 ± 0.025 | 0.193 ± 0.03 | 0.284 ± 0.011 | 0.298 ± 0.017
CRLFPFPLLAQL | 0.646 ± 0.034 | 0.7407 ± 0.003 | 0.628 ± 0.021 | 0.7522 ± 0.0063 | 0.425 ± 0.013 | 0.415 ± 0.025 | 0.484 ± 0.023 | 0.488 ± 0.084
CSAARKDGLAPL | 0.697 ± 0.038 | 0.722 ± 0.02 | 0.649 ± 0.02 | 0.7342 ± 0.0011 | 0.633 ± 0.021 | 0.649 ± 0.029 | 0.719 ± 0.032 | 0.701 ± 0.024
CSLPVLFLPYYL | 0.581 ± 0.025 | 0.5788 ± 0.0043 | 0.523 ± 0.022 | 0.625 ± 0.022 | 0.606 ± 0.014 | 0.492 ± 0.0051 | 0.572 ± 0.02 | 0.486 ± 0.14
CSPVNGSAVWSI | 0.688 ± 0.032 | 0.736 ± 0.016 | 0.668 ± 0.02 | 0.7551 ± 0.00081 | 0.664 ± 0.019 | 0.667 ± 0.017 | 0.7093 ± 0.0046 | 0.699 ± 0.076
CSSFFLLLFFLF | 0.351 ± 0.051 | 0.448 ± 0.018 | 0.335 ± 0.021 | 0.451 ± 0.029 | 0.301 ± 0.021 | 0.268 ± 0.01 | 0.407 ± 0.0056 | 0.311 ± 0.019
CSWMRSRMWVGG | 0.33 ± 0.051 | 0.419 ± 0.03 | 0.422 ± 0.0063 | 0.36 ± 0.0087 | 0.454 ± 0.014 | 0.409 ± 0.013 | 0.346 ± 0.0053 | 0.3994 ± 0.0039
CTWGRYGGIWLR | 0.0548 ± 0.007 | 0.0483 ± 0.033 | 0.136 ± 0.062 | 0.144 ± 0.013 | 0.668 ± 0.034 | 0.117 ± 0.023 | 0.11 ± 0.016 | 0.254 ± 0.058
CVFCLTVFVRFL | 0.197 ± 0.0067 | 0.26 ± 0.018 | 0.192 ± 0.028 | 0.346 ± 0.015 | 0.128 ± 0.014 | 0.151 ± 0.022 | 0.2572 ± 0.0012 | 0.243 ± 0.011

Sequence | protein stability index [1, 3] | protein stability index [1, 4] | protein stability index [1, 5] | protein stability index [1, 6] | protein stability index [1, 7] | protein stability index [1, 8] | protein stability index [1, 9] | protein stability index [2]
CVFVWFWCMTWV | 0.171 ± 0.089 | 0.164 ± 0.016 | 0.0811 ± 0.048 | 0.313 ± 0.15 | 0.105 ± 0.069 | 0.117 ± 0.11 | 0.345 ± 0.13 | 0.168 ± 0.0053
CVLFLGQILCVV | 0.266 ± 0.018 | 0.328 ± 0.01 | 0.28 ± 0.033 | 0.3857 ± 0.00079 | 0.236 ± 0.011 | 0.276 ± 0.017 | 0.339 ± 0.026 | 0.332 ± 0.0076
CYSRRGCIYFFF | 0.564 ± 0.029 | 0.693 ± 0.009 | 0.583 ± 0.016 | 0.698 ± 0.0099 | 0.0971 ± 0.018 | 0.101 ± 0.022 | 0.157 ± 0.0033 | 0.192 ± 0.037
DNTVWLRLVTSC | 0.32 ± 0.052 | 0.506 ± 0.011 | 0.402 ± 0.017 | 0.565 ± 0.013 | 0.0752 ± 0.013 | 0.0895 ± 0.015 | 0.0768 ± 0.016 | 
FCLRQPMLRFFI | 0.586 ± 0.027 | 0.595 ± 0.012 | 0.562 ± 0.037 | 0.639 ± 0.0057 | 0.479 ± 0.03 | 0.442 ± 0.028 | 0.54348 ± 9.7e-05 | 
FLFVSVFHPALL | 0.6421 ± 0.0042 | 0.70858 ± 0.0003 | 0.593 ± 0.059 | 0.6911 ± 0.0062 | 0.3787 ± 0.0024 | 0.409 ± 0.019 | 0.601 ± 0.013 | 
GAVGGWGWVSFV | 0.683 ± 0.049 | 0.7583 ± 0.0075 | 0.603 ± 0.034 | 0.771 ± 0.01 | 0.3855 ± 0.0037 | 0.397 ± 0.0083 | 0.595 ± 0.092 | 
GGCGFVWWRLLG | 0.544 ± 0.023 | 0.6932 ± 0.0055 | 0.622 ± 0.033 | 0.752 ± 0.0098 | 0.125 ± 0.0054 | 0.144 ± 0.033 | 0.199 ± 0.022 | 
GGGRGGRWGRLC | 0.65 ± 0.042 | 0.743 ± 0.016 | 0.654 ± 0.013 | 0.7395 ± 0.007 | 0.188 ± 0.018 | 0.214 ± 0.024 | 0.483 ± 0.012 | 
GLLMCNPLLHSI | 0.66632 ± 0.00053 | 0.734 ± 0.0075 | 0.674 ± 0.038 | 0.727 ± 0.03 | 0.589 ± 0.032 | 0.614 ± 0.011 | 0.704 ± 0.016 | 
IMWAFFMFCSFL | 0.498 ± 0.067 | 0.53764 ± 0.00031 | 0.428 ± 0.057 | 0.5564 ± 0.0029 | 0.37 ± 0.0076 | 0.367 ± 0.026 | 0.481 ± 0.044 | 
LSLCFGPFFYFP | 0.679 ± 0.072 | 0.7329 ± 0.0056 | 0.64 ± 0.029 | 0.711 ± 0.03 | 0.64 ± 0.042 | 0.6242 ± 0.0027 | 0.704 ± 0.046 | 
PPPPPSARSPFR | 0.649 ± 0.043 | 0.726 ± 0.012 | 0.633 ± 0.027 | 0.7402 ± 0.0063 | 0.603 ± 0.03 | 0.602 ± 0.0097 | 0.695 ± 0.004 | 
RVIESRWFNRLC | 0.587 ± 0.033 | 0.72 ± 0.015 | 0.656 ± 0.025 | 0.7405 ± 0.0048 | 0.0884 ± 0.011 | 0.121 ± 0.019 | 0.229 ± 0.018 | 
TFCVLLQFCVLV | 0.365 ± 0.039 | 0.398 ± 0.017 | 0.308 ± 0.028 | 0.426 ± 0.02 | 0.3058 ± 0.0007 | 0.315 ± 0.012 | 0.411 ± 0.0012 | 
